Experimental findings from patent publication US20030224521, “Enhanced homologous recombination mediated by lambda recombination proteins” (The Gov. of the USA Secretary of the Department of Health …, published 2003) are described below.

T1: lambda Beta (Bet) (Bacteriophage lambda, UniProt P03698 P03698:1-261)
T1 sequence: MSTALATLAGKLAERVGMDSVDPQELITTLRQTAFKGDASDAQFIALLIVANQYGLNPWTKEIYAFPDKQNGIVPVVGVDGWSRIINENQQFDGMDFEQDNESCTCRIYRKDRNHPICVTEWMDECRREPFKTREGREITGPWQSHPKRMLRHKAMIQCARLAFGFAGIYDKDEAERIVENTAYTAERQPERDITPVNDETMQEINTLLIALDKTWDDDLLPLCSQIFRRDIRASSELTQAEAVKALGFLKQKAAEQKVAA

B1: galK 60-mer oligo (ssDNA)
DNA: GCGGTCGGAACCGTATTGCAGCAGCTTTATCATCTGCCGCTGGACGGCGCACAAATCGCG

The data set has as its target T1, lambda Beta (Bet). Kind of data set: cell_activity; HME9, Exo and Gam co-expressed. The conditions noted are these: tags: expressed from pL of defective prophage in E. coli. As to the method:
Using the methods described in Examples 2, 3, 5, 10 and 11, lambda operon expression was heat-induced, cells were rendered electroporation-competent, and ssDNA oligonucleotides (200 ng each) were electroporated into E. coli HME9 strain cells. The electroporated ssDNA oligonucleotides included the 70-mer of SEQ ID NO: 11, a 60-mer constructed by removing the last 5 nucleotides from both the 5′ and 3′ ends of SEQ ID NO: 11, and a 50-mer, 40-mer, 30-mer, or 20-mer constructed by removing the last 10, 15, 20, or 25 nucleotides, respectively, from both the 5′ and 3′ ends of SEQ ID NO: 11. As in example 10, the ssDNA oligonucleotides used in this experiment were all designed to restore the galK+ gene upon successful recombination, thereby conferring upon the cell a Gal+ phenotype. Table 7 indicates the number of galK+ recombinants per viable cell, […].
Consider GCAGCTTTATCATCTGCCGC (ssDNA) [galK 20-mer oligo], for which the activity was 1e-06 recombinants per viable cell.
The figure for CGGAACCGTATTGCAGCAGCTTTATCATCTGCCGCTGGACGGCGCACAAA (ssDNA) [galK 50-mer oligo] is 0.0004 recombinants per viable cell; for CCGTATTGCAGCAGCTTTATCATCTGCCGCTGGACGGCGC (ssDNA) [galK 40-mer oligo] it is 0.0004 recombinants per viable cell.
As for TTGCAGCAGCTTTATCATCTGCCGCTGGAC (ssDNA) [galK 30-mer oligo], the figure is 4.7e-05 recombinants per viable cell.
B1: the activity was 0.0006 recombinants per viable cell.
